Source: paper PMC9668914, “Understanding VPAC receptor family peptide binding and selectivity” (Nature Communications, 2022)

Target: PACAP type 1 receptor (PAC1R), PAC1null splice variant, FLAG and His tagged (UniProt P41586)
Sequence (P41586 21-468, change not shown): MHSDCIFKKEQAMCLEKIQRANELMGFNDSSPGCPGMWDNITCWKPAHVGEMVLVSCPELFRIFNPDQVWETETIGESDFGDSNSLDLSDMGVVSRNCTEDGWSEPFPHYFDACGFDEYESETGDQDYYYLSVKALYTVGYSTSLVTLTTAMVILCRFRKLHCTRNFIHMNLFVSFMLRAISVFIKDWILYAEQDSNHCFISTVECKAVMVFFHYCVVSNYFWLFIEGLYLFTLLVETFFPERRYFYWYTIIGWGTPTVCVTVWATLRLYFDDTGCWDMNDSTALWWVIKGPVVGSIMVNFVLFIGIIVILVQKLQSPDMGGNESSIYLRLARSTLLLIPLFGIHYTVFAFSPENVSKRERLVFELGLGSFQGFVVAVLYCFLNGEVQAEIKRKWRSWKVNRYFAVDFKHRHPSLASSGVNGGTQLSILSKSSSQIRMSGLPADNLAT

Substance | cAMP potency in COS-7 cells transfected with PAC1R, fold change relative to PACAP27 [fold] | cAMP potency in COS-7 cells transfected with PAC1R, fold change relative to VIP [fold]
Ala4 PACAP27 (peptide) | 5 | 
Gly4 VIP (peptide) |  | 3
